{"source": "IntAct's records for PubMed 33758649", "parents": {"B1": {"name": "Protein PALS1 (Homo sapiens), Q8N3R9 (parent)", "chain": "MTTSHMNGHVTEESDSEVKNVDLASPEEHQKHREMAVDCPGDLGTRMMPIRRSAQLERIRQQQEDMRRRREEEGKKQELDLNSSMRLKKLAQIPPKTGIDNPMFDTEEGIVLESPHYAVKILEIEDLFSSLKHIQHTLVDSQSQEDISLLLQLVQNKDFQNAFKIHNAITVHMNKASPPFPLISNAQDLAQEVQTVLKPVHHKEGQELTALLNTPHIQALLLAHDKVAEQEMQLEPITDERVYESIGQYGGETVKIVRIEKARDIPLGATVRNEMDSVIISRIVKGGAAEKSGLLHEGDEVLEINGIEIRGKDVNEVFDLLSDMHGTLTFVLIPSQQIKPPPAKETVIHVKAHFDYDPSDDPYVPCRELGLSFQKGDILHVISQEDPNWWQAYREGDEDNQPLAGLVPGKSFQQQREAMKQTIEEDKEPEKSGKLWCAKKNKKKRKKVLYNANKNDDYDNEEILTYEEMSLYHQPANRKRPIILIGPQNCGQNELRQRLMNKEKDRFASAVPHTTRSRRDQEVAGRDYHFVSRQAFEADIAAGKFIEHGEFEKNLYGTSIDSVRQVINSGKICLLSLRTQSLKTLRNSDLKPYIIFIAPPSQERLRALLAKEGKNPKPEELREIIEKTREMEQNNGHYFDTAIVNSDLDKAYQELLRLINKLDTEPQWVPSTWLR"}}}
{"variants_of": "B1", "details": "with vemp_sars2 E"}
{"variant": "F318W", "effect of a mutation on the interaction": "increasing interaction strength"}
